Data on two molecules can be found in US8273705B2, “Conversion of apoptotic proteins” (The Burnham Institute, priority 2002, dated 2012).

The subject of experiment [1] is 293T cells. In words: DAPI apoptosis assay in 293T cells. The format is cell-based, human. On the procedure:
Apoptosis assays—For nuclear morphological change analysis, cells were trypsinized, washed with PBS, fixed with 3.7% paraformaldehyde, and stained with DAPI (4,6-diamidino-2-phenylindole) (50 μg/ml) to visualize the nuclei by UV-microscopy. The percentages of apoptotic cells were determined by counting 300 GFP-positive cells, scoring cells having nuclear fragmentation and/or chromatin condensation.
DAPI staining was used to study the apoptotic effect of TR3/Bcl-2 interaction. 293T cells were transfected with GFP-TR3/ΔDBD alone or together with Bcl-2. After 36 h, nuclei were stained by DAPI and nuclear fragmentation and chromatin condensation were identified. Cells were also stained with anti-Bcl-2 antibody, followed by TRITC-conjugated secondary antibody (Sigma). Bcl-2 and GFP-ΔDBD expression and nuclear morphology were visualized by fluorescence microscopy, and the two images were overlaid. […] But, when Bcl-2 was cotransfected, a significant amount of transfected cells underwent apoptosis. For example, approximately 4% of cells transfected with either TR3/ΔDBD or Bcl-2 were apoptotic, compared to 35% of cell transfected with both. […] Cotransfection of Bcl-2, however, prevented BAX-induced apoptosis in these cells (see FIG. 4). The effect of Bcl-2 on apoptotic potential of TR3/ΔDBD in lung cancer and breast cancer cells was also investigated.
To characterize the pro-apoptotic mechanism of Bcl-2 in the setting of TR3-induced apoptosis, various TR3 mutants and Bcl-2 mutants were co-expressed in HEK293T cells. TR3 mutants were transfected into 293T cells together with or without Bcl-2 expression vector or with Bcl-2 mutants. After 36 h, nuclei were stained by DAPI. Cells displaying nuclear condensation or fragmentation were scored.
The role of various Bcl-2 mutants in mediating apoptosis induction by TR3 was next studied. […] The hydrophobic cleft of Bcl-2 is involved in its anti-apoptotic effect through its interaction with BH3 domain of pro-apoptotic molecules (Reed 1997 Semin Hematol 34:9-19; Reed 1997 Nature 387:773-776). To investigate whether the BH3 domain-binding motif of Bcl-2 is also involved in its apoptotic effect, various Bcl-2 mutants including Y108K Bcl-2, with a mutation in the BH3 domain-binding cleft, L137A, and G145A (all with impaired interaction with bax), were cotransfected together with TR3/ΔDBD. […] Bcl-2 mutations (Y108K, L137A, G145A) that impaired its interaction with Bax, abolished the Bcl-2 inhibitory effect on Bax-induced apoptosis, consistent with previous observations that the hydrophobic cleft of Bcl-2 is essential for its anti-apoptotic effect. […] Thus, an intact BH3 domain-binding motif in Bcl-2 is involved in its pro-apoptotic effect. In contrast to the inhibitory effect of Bcl-2 on Bax-induced apoptosis TR3/ΔDBD-induced apoptosis was augmented by co-expression of Bcl-2 in HEK293T cells.
Mitochondrial targeting of TR3 has been previously identified as being involved in its apoptotic effect. To study whether mitochondrial localization of the TR3/ΔDBD/Bcl-2 complex was involved in their apoptotic effect, TR3/ΔDBD was cotransfected with Bcl-2/ATM, a Bcl-2 lacking its transmembrane domain. […] Thus, mitochondrial localization of TR3/ΔDBD/Bcl-2 complex is involved in this apoptotic effect.

The subject of experiment [2] is NCI-H460 lung cancer cells. In words: GFP-TR3/ΔDBD mitochondrial targeting in NCI-H460 lung cancer cells. The format is cell-based. The conditions noted are these: transient transfection. On the procedure: Subcellular localization assays—Cells were seeded onto cover-slips in 6-well plates overnight, then transiently transfected with GFP-fusion expression plasmids. After 16 hours, cells were washed with PBS and fixed in 4% paraformaldehyde. For mitochondrial staining, cells were then incubated with anti-Hsp60 goat IgG (Santa Cruz, USA), followed by anti-goat IgG conjugated with Cy3 (Sigma). For cyt c staining, cells were incubated with monoclonal anti-cyt c IgG (PharMingen), followed by anti-mouse IgG conjugated with Cy5 (Amersham). Fluorescent images were collected and analyzed using a MRC-1024 MP laser-scanning confocal microscope (Bio-Rad). Subcellular fractionation assays were performed as described (Li, et al. 2000 Science 289:1159-1164). Briefly, cells (1×10^7 cells) suspended in 0.5 ml hypotonic buffer (5 mM Tris-HCl, pH 7.4, 5 mM KCl, 1.5 mM MgCl2, 0.1 mM EGTA, pH 8.0, and 1 mM DTT) were homogenized and cell extracts were centrifuged at 500×g for 5 min. The resulting supernatant was centrifuged at 10,000×g for 30 min at 4° C. to obtain the HM fraction. […]
Given the results of these studies, it was desirable to determine whether TR3 exerts its apoptotic effect in lung cancer cells as in prostate cancer cells by targeting to mitochondria. […] The cells were stained for mitochondria (Hsp60) and cytochrome c (Cyt c), and analyzed by confocal microscopy. […]

The subject of experiment [3] is peripheral blood lymphocytes (PBLs). In words: Apoptosis of peripheral blood lymphocytes. It counts as cell-based, human. The settings on record: annexin V-staining, transfection.
Experimental: Isolation and transfection of human peripheral blood lymphocytes (PBLs)—Leukocyte-enriched buffy coats from San Diego Blood Bank were diluted with 2 volumes of PBS, and PBLs were isolated by centrifuge on Ficoll-paque™ Plus (Amersham Pharmacia biotech). The mononuclear cells were cultured in RPMI containing 10% FBS and 20 μM Hepes. Freshly isolated cells (10^7 cells per transfection) were washed once with PBS containing 0.5% BSA and supernatant was completely discarded so that no residual PBS/BSA covers the pellet. The cells were resuspended in 100 μl of the human T Cell Nucleofector™ solution (Amexa biosystems) and very gently mixed with 1-4 μg DNA in 5 μl. The cell suspension was transferred into a cuvette supplied by Amexa biosystems and electroporated using U-14 program of Nucleofector™ device. The cells were removed from the cuvette quickly by adding 500 μl of the pre-warmed RPMI medium containing 10% FBS and 20 μM Hepes and transferred into 12 well plates containing 1.5 ml of pre-warmed culture medium.
In experiment [4] the test system is 293T cells. The experiment in a line: Cytochrome c release in 293T cells (confocal microscopy). It counts as cell-based, human. On the procedure: Subcellular localization assays—Cells were seeded onto cover-slips in 6-well plates overnight, then transiently transfected with GFP-fusion expression plasmids. After 16 hours, cells were washed with PBS and fixed in 4% paraformaldehyde. For mitochondrial staining, cells were then incubated with anti-Hsp60 goat IgG (Santa Cruz, USA), followed by anti-goat IgG conjugated with Cy3 (Sigma). For cyt c staining, cells were incubated with monoclonal anti-cyt c IgG (PharMingen), followed by anti-mouse IgG conjugated with Cy5 (Amersham). Fluorescent images were collected and analyzed using a MRC-1024 MP laser-scanning confocal microscope (Bio-Rad). Subcellular fractionation assays were performed as described (Li, et al. 2000 Science 289:1159-1164). Briefly, cells (1×10^7 cells) suspended in 0.5 ml hypotonic buffer (5 mM Tris-HCl, pH 7.4, 5 mM KCl, 1.5 mM MgCl2, 0.1 mM EGTA, pH 8.0, and 1 mM DTT) were homogenized and cell extracts were centrifuged at 500×g for 5 min. The resulting supernatant was centrifuged at 10,000×g for 30 min at 4° C. to obtain the HM fraction. HM fraction was resuspended in 100 μl lysis buffer (10 mM Tris, pH 7.4, 150 mM NaCl, 1% Triton X-100, 5 mM EDTA, pH 8.0) for immunoblotting analysis.
The involvement of TR3/Bcl-2 interaction in TR3-induced cytochrome c release was also studied. […] Nor did transient expression of Bcl-2 alone.

The mark [5] stands for this setting: 293T, co-expressed with Bcl-2, 36 h, DAPI.

B1: TR3/ΔDBD: TR3 mutant with the DNA binding domain removed; used as GFP fusion (protein)
chain: MPCIQAQYGTPAPSPGPRDHLASDPLTPEFIKPTMDLASPEAAPAAPTALPSFSTFMDGYTGEFDTFLYQLPGTVQPCSSASSSASSTSSSSATSPASASFKFEDFQVYGCYPGPLSGPVDEALSSSGSDYYGSPCSAPSPSTPSFQPPQLSPWDGSFGHFSPSQTYLVLHRLQCARGFGDWIDSILAFSRSLHSLLVDVPAFACLSALVLITDRHGLQEPRRVEELQNRIASCLKEHVAAVAGEPQPASCLSRLLGKLPELRTLCTQGLQRIFYLKLEDLVPPPPIIDKIFMDTLPF
modifications: left off: large carriers; small tags and cut ends
notes: used as GFP fusion
In the case of B1, the apoptosis result in the experiment on 293T cells [1] (setting [5]) is “augmented”; in the experiment on 293T cells [1] (293T, coexpression with Bcl-2/ΔTM) it was “did not result in apoptosis”; in the experiment with 293T cells [1] (293T, cotransfected with Bcl-2 Y108K), “unable to induce apoptosis”; in the experiment on 293T cells [1] (HEK293T, co-expression with Bcl-2/ΔLoop) it was “did not induce cell death”; in the experiment on 293T cells [1] (co-expressed with Bcl-2 L137A and G145A), “retained the ability to promote apoptosis”; in the experiment on 293T cells [1] (co-expressed with Bcl-2 mutants lacking TM, BH1, BH2 or BH3 domain), “incapable of inducing apoptosis”. Further, the apoptotic cells result with 293T cells [1] (293T, transfected alone, 36 h, DAPI) is “approximately 4%”; in the experiment with 293T cells [1] (293T, transfected with both TR3/ΔDBD and Bcl-2, 36 h, DAPI), 35%. Also, in experiment [2], the GFP-TR3/ΔDBD subcellular localization entry is listed as “targeted to mitochondria”. The PBL apoptosis entry in experiment [3] is “potently induced PBL apoptosis”. The cytochrome c release result in the experiment on 293T cells [4] (absence of Bcl-2 cotransfection) is “did not cause any release of cytochrome c”; in the experiment with 293T cells [4] (co-expression with Bcl-2/Y108K), “did not induce cyt c release”; with 293T cells [4] (co-transfection with Bcl-2/ΔTM), “did not occur”; in the experiment on 293T cells [4] (cotransfection with Bcl-2), “significant release of cytochrome c”. Further, the “TR3/ΔDBD and Bcl-2 colocalized cells displaying diffuse cyt c staining” value in the experiment with 293T cells [4] (cotransfected with Bcl-2) was “Approximately 75%”.

B2: TR3/ΔDBD/Δ471-488: TR3/ΔDBD with eighteen amino acids from 471 to 488 in the DC1 region deleted (protein)
chain: MPCIQAQYGTPAPSPGPRDHLASDPLTPEFIKPTMDLASPEAAPAAPTALPSFSTFMDGYTGEFDTFLYQLPGTVQPCSSASSSASSTSSSSATSPASASFKFEDFQVYGCYPGPLSGPVDEALSSSGSDYYGSPCSAPSPSTPSFQPPQLSPWDGSFGHFSPSQTYLVLFSRSLHSLLVDVPAFACLSALVLITDRHGLQEPRRVEELQNRIASCLKEHVAAVAGEPQPASCLSRLLGKLPELRTLCTQGLQRIFYLKLEDLVPPPPIIDKIFMDTLPF
modifications: left off: large carriers; small tags and cut ends
notes: TR3/ΔDBD with eighteen amino acids from 471 to 488 in the DC1 region deleted
In the case of B2, the apoptosis entry in the experiment on 293T cells [1] (setting [5]) was “failed to confer the apoptotic potential of Bcl-2”.
